Experimental data: article PMC6590058

T1: IRF1 (UniProt P10914 1-325)
T1 sequence: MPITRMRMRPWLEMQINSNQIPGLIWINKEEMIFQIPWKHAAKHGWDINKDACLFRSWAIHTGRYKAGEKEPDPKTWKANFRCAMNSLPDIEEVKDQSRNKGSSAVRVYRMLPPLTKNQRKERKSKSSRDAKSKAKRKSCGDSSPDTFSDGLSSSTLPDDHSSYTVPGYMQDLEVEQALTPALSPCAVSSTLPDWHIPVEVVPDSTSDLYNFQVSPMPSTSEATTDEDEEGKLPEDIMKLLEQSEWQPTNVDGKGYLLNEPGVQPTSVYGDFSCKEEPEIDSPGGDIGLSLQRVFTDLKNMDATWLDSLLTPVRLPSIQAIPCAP


What was measured:
[1] = target: SMAD4 (UniProt Q13485 1-552); assay: EMSA
[2] = target: T1, IRF1; assay: EMSA

Sequence of SMAD4 (Q13485 whole entry): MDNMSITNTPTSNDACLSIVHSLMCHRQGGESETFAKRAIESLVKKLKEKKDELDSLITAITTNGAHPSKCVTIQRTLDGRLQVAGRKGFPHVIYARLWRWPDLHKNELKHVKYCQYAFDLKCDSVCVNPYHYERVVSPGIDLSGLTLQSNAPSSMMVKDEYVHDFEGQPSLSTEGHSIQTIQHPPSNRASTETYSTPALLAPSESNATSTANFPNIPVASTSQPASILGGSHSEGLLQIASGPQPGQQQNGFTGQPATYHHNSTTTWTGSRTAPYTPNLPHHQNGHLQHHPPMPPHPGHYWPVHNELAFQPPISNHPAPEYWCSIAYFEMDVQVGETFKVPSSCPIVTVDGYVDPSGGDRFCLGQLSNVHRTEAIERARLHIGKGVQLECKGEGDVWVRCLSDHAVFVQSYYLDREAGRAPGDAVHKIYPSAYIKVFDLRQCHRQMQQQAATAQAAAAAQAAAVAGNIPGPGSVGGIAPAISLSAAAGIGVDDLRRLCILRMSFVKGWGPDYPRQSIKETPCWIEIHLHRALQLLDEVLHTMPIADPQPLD

Row | Binder | binding result [1] | binding result [2]
1 | IFI6-ISRE-25 (dsDNA) DNA 1: GAGAGGGGAAAATGAAACTGCAGAG DNA 2: CTCTGCAGTTTCATTTTCCCCTCTC | no binding | binds
2 | HAMP-BRE-25 (dsDNA) DNA 1: TCTCCCGCCTTTTCGGCGCCACCAC DNA 2: GTGGTGGCGCCGAAAAGGCGGGAGA | binds | no binding
